The results in this text go back to US20010010923A1, “MODIFIED CARBOXYPEPTIDASE” (priority 1997, published 2001).

Residue numbers refer to the chain shown, from its start. Numbers in names are those of the source. Entries after “also recorded” stand apart in the source; their conditions may differ. Marks after values point to notes of the source that are not given here.

To fix the notation:
B1: T60M: carboxypeptidase Y S1' mutant, substitution T60M (protein, UniProt P00729 112-532, looked up, variant T60M)
Carboxypeptidase Y: KIKDPKILGIDPNVTQYTGYLDVEDEDKHFFFWTFESRNDPAKDPVILWLNGGPGCSSLMGLFFELGPSSIGPDLKPIGNPYSWNSNATVIFLDQPVNVGFSYSGSSGVSNTVAAGKDVYNFLELFFDQFPEYVNKGQDFHIAGESYAGHYIPVFASEILSHKDRNFNLTSVLIGNGLTDPLTQYNYYEPMACGEGGEPSVLPSEECSAMEDSLERCLGLIESCYDSQSVWSCVPATIYCNNAQLAPYQRTGRNVYDIRKDCEGGNLCYPTLQDIDDYLNQDYVKEAVGAEVDHYESCNFDINRNFLFAGDWMKPYHTAVTDLLNQDLPILVYAGDKDFICNWLGNKAWTDVLPWKYDEEFASQKVRNWTASITDEVAGEVKSYKHFTYLRVFNGGHMVPFDVPENALSMVNEWIHGGFSL
B2: T60D: carboxypeptidase Y S1' mutant, substitution T60D (protein, UniProt P00729 112-532, looked up, variant T60D)
Carboxypeptidase Y: B1 Carboxypeptidase Y with M60D
B3: M398A: carboxypeptidase Y S1' mutant, substitution M398A (protein, UniProt P00729 112-532, looked up, variant M398A)
Carboxypeptidase Y: B1 Carboxypeptidase Y with M60T, M398A
B4: M398C: carboxypeptidase Y S1' mutant, substitution M398C (protein, UniProt P00729 112-532, looked up, variant M398C)
Carboxypeptidase Y: B1 Carboxypeptidase Y with M60T, M398C
B5: M398G: carboxypeptidase Y S1' mutant, substitution M398G (protein, UniProt P00729 112-532, looked up, variant M398G)
Carboxypeptidase Y: B1 Carboxypeptidase Y with M60T, M398G
B6: T60A: carboxypeptidase Y S1' mutant, substitution T60A (protein, UniProt P00729 112-532, looked up, variant T60A)
Carboxypeptidase Y: B1 Carboxypeptidase Y with M60A
B7: M398F: carboxypeptidase Y S1' mutant, substitution M398F (protein, UniProt P00729 112-532, looked up, variant M398F)
Carboxypeptidase Y: B1 Carboxypeptidase Y with M60T, M398F
B8: M398Y: carboxypeptidase Y S1' mutant, substitution M398Y (protein, UniProt P00729 112-532, looked up, variant M398Y)
Carboxypeptidase Y: B1 Carboxypeptidase Y with M60T, M398Y
B9: M398N: carboxypeptidase Y S1' mutant, substitution M398N (protein, UniProt P00729 112-532, looked up, variant M398N)
Carboxypeptidase Y: B1 Carboxypeptidase Y with M60T, M398N
B10: T60Y: carboxypeptidase Y S1' mutant, substitution T60Y (protein, UniProt P00729 112-532, looked up, variant T60Y)
Carboxypeptidase Y: B1 Carboxypeptidase Y with M60Y

The first assay can be described thus: Transpeptidation of FA-Ala-OBzl with H-Leu-NH2, Table 3. The conditions noted are these: FA-Ala-OBzl 0.2 mM; H-Leu-NH2; pH 7.5. The format is biochemical. Here is the method: (§1) Transamidation reactions were carried out generally as described in PCT Application WO 95/20039. In general, the method included dissolving the nucleophile (H-Leu-NH2, unless otherwise indicated) in 50 mM HEPES, 5 mM EDTA and adjusting the pH to 7.5, 5 μl of peptide substrate (8 mM Bz-G-A-R-A-R-A-OH, unless otherwise indicated, in methanol) was added to 190 μl nucleophile solution followed by 5 μl enzyme, resulting in a substrate concentration of 0.2 mM.
(§2) During the reaction, 20 μl aliquots were removed from the reaction mixture and added to 50 μl 1% trifluoroacetic acid to quench the reaction. The reactant composition was determined by HPLC using a Waters HPLC equipped with a C-18 Waters Novapac 4μ reverse phase column and various gradients of acetonitrile in 0.1% trifluoroacetic acid. The separation was monitored at 254 nm allowing the direct quantification of the products from the integrated peak areas. The composition of the reaction mixture was determined at least twvice during the reaction, the first when 20-50% (preferably 35%) of the substrate had been consumed in the reaction and the second time when 50-90% (preferably 80%) of the peptide substrate had been consumed.
(§3) The fraction of aminolysis (fa) was expressed as the ratio between the formed aminolysis product and the sum of all products formed. Unconsumed substrate was disregarded in the calculations.
Site specific mutagenesis was performed as described in Example 1 to produce the specific substitution mutants described below. Transamidation reactions were performed as described for Example 1.
In table 3, below, KN(app) represents the nucleophile concentration at which fa is half of the maximum value (a measure for the dissociation constant of the nucleophile). famax is the highest possible fa obtained at saturation of the enzyme with the nucleophile.
KN(app) indicates the concentration at which famax/2 is reached and thus describes the apparent binding constant of the nucleophile. Because the competing hydrolysis reaction is thought to occur while the leaving group remains attached to the to the acyl-enzyme intermediate, a low KN(app) is preferred.
As for B1, the fa was 0.98^b.
In the case of B2, the fa is 0.94^a.
For the molecule B3, the fa is given as 0.93^a.
For the molecule B4, the fa was 0.95^a.
Regarding B5, the fa is reported as 0.95^a.
Still for that read-out and setting: the value for B6 was 0.92^a; that for B7 was 0.96^a.
Still for that read-out and setting: the value for B8 was 0.78^b.
For B9, the fa is 0.83^a.
As to B10, the fa is recorded as 0.95^a.

The same assay, now with this note: compared with wild type, Table 3.
Regarding B1, the “change in famax and KN(app), in words” value was “increase in both famax and KN(app)”.
Take B7: the “change in famax and KN(app), in words” value was “increase in both famax and KN(app)”.

Staying with this assay, now noted: nucleophile H-Leu-NH2 concentration at which fa is half of maximum; FA-Ala-OBzl 0.2 mM; pH 7.5.
Take B2: the “KN(app)” value is on record as 1.5^c mM.
Turning to B3, the “KN(app)” value is 0.83^a mM.
Same read-out and setting: in the case of B4 it was 0.74^b mM; in that of B5, 1.6^a mM; in that of B7, 2.3^b mM.
With B8, the “KN(app)” value is on record as 5.2^c mM.
Still for that read-out and setting: in the case of B9 it was 1.2^c mM.

A further assay can be described thus: Transpeptidation of FA-Ala-Xaa-OH with H-Gly-NH2, Table 2. The format is biochemical. The conditions noted are these: FA-Ala-Ala-OH 0.2 mM; 1.9 M H-Gly-NH2; pH 7.5; room temperature. Here is the method: as §1, §2, §3
Site specific mutagenesis was performed as described for Example 1 to produce the S1 mutants used below.
Transamidation reactions were performed as described for Example 1.
B1: the “Fraction of aminolysis (fa), P1' Ala” value stood at 0.78.
Same read-out and setting: in the case of B2 it was 0.87.
B3: the “Fraction of aminolysis (fa), P1' Ala” value is reported as 0.93.
Take B4: the “Fraction of aminolysis (fa), P1' Ala” value stood at 0.93.
As for B5, the “Fraction of aminolysis (fa), P1' Ala” value was 0.93.
For the molecule B6, the “Fraction of aminolysis (fa), P1' Ala” value amounted to 0.91.
B7: the “Fraction of aminolysis (fa), P1' Ala” value came out at 0.87.
As for B8, the “Fraction of aminolysis (fa), P1' Ala” value turned out to be 0.90.
Regarding B9, the “Fraction of aminolysis (fa), P1' Ala” value amounted to 0.92.
In the case of B10, the “Fraction of aminolysis (fa), P1' Ala” value came out at 0.90.

The same assay, now with this note: FA-Ala-Leu-OH 0.2 mM; 1.9 M H-Gly-NH2; pH 7.5; room temperature.
B1: the “Fraction of aminolysis (fa), P1' Leu” value is 0.03.
B2: the “Fraction of aminolysis (fa), P1' Leu” value is on record as 0.25.
For the molecule B3, the “Fraction of aminolysis (fa), P1' Leu” value worked out at 0.84.
The same measure, in the same setting: in the case of B4 it was 0.75.
Take B5: the “Fraction of aminolysis (fa), P1' Leu” value was 0.59.
Same read-out and setting: the value for B6 was 0.32.
In the case of B7, the “Fraction of aminolysis (fa), P1' Leu” value is 0.85.
Regarding B8, the “Fraction of aminolysis (fa), P1' Leu” value is listed as 0.90.
For the molecule B9, the “Fraction of aminolysis (fa), P1' Leu” value is 0.36.
With B10, the “Fraction of aminolysis (fa), P1' Leu” value came to 0.66.

Staying with this assay, now noted: FA-Ala-Met-OH 0.2 mM; 1.9 M H-Gly-NH2; pH 7.5; room temperature.
Take B1: the “Fraction of aminolysis (fa), P1' Met” value turned out to be 0.01.
Turning to B2, the “Fraction of aminolysis (fa), P1' Met” value turned out to be 0.15.
As to B3, the “Fraction of aminolysis (fa), P1' Met” value amounted to 0.89.
As for B4, the “Fraction of aminolysis (fa), P1' Met” value is on record as 0.65.
For the molecule B5, the “Fraction of aminolysis (fa), P1' Met” value was 0.83.
B6: the “Fraction of aminolysis (fa), P1' Met” value is listed as 0.16.
Same read-out and setting: in the case of B7 it was 0.86; in that of B8, 0.90.
Take B9: the “Fraction of aminolysis (fa), P1' Met” value was 0.70.
In the case of B10, the “Fraction of aminolysis (fa), P1' Met” value is 0.58.

The same assay, now with this note: FA-Ala-Phe-OH 0.2 mM; 1.9 M H-Gly-NH2; pH 7.5; room temperature.
B1: the “Fraction of aminolysis (fa), P1' Phe” value was 0.18.
B2: the “Fraction of aminolysis (fa), P1' Phe” value is 0.15.
As for B3, the “Fraction of aminolysis (fa), P1' Phe” value was found to be 0.84.
As to B4, the “Fraction of aminolysis (fa), P1' Phe” value turned out to be 0.64.
As to B5, the “Fraction of aminolysis (fa), P1' Phe” value is reported as 0.66.
On the same count and under the same terms, in the case of B6 it was 0.12.
Turning to B7, the “Fraction of aminolysis (fa), P1' Phe” value was determined as 0.85.
Still for that read-out and setting: the value for B8 was 0.92.
Turning to B9, the “Fraction of aminolysis (fa), P1' Phe” value is 0.11.
Same read-out and setting: in the case of B10 it was 0.51.

Still in this assay, the particulars now being: FA-Ala-Val-OH 0.2 mM; 1.9 M H-Gly-NH2; pH 7.5; room temperature.
B1: the “Fraction of aminolysis (fa), P1' Val” value was 0.15.
Still for that read-out and setting: in the case of B2 it was 0.53; in that of B3, 0.65; in that of B4, 0.52.
For B5, the “Fraction of aminolysis (fa), P1' Val” value turned out to be 0.42.
Still for that read-out and setting: the value for B6 was 0.44; that for B7 was 0.83.
With B8, the “Fraction of aminolysis (fa), P1' Val” value came out at 0.89.
For B9, the “Fraction of aminolysis (fa), P1' Val” value is 0.52.
With B10, the “Fraction of aminolysis (fa), P1' Val” value is reported as 0.43.

The same assay, now with this note: larger, hydrophobic leaving group such as leucine.
Take B2: the “fraction of aminolysis compared to wild type, in words” value is given as “improvement in fraction of aminolysis obtained”.
On to B3, for which the “fraction of aminolysis compared to wild type, in words” value is recorded as “improvement in fraction of aminolysis obtained; also recorded: enhanced transpeptidation”.
As to B4, the “fraction of aminolysis compared to wild type, in words” value is on record as “improvement in fraction of aminolysis obtained; also recorded: most dramatic improvement; also recorded: enhanced transpeptidation”.
Consider B5, for which the “fraction of aminolysis compared to wild type, in words” value is “improvement in fraction of aminolysis obtained”.
Regarding B6, the “fraction of aminolysis compared to wild type, in words” value is “improvement in fraction of aminolysis obtained; also recorded: most effective at increasing the fraction of aminolysis”.
On the same count and under the same terms, in the case of B7 it was “improvement in fraction of aminolysis obtained; also recorded: most dramatic improvement; also recorded: enhanced transpeptidation”; in that of B8, “improvement in fraction of aminolysis obtained; also recorded: most dramatic improvement; also recorded: enhanced transpeptidation”.
As to B9, the “fraction of aminolysis compared to wild type, in words” value is given as “improvement in fraction of aminolysis obtained; also recorded: enhanced transpeptidation”.
As for B10, the “fraction of aminolysis compared to wild type, in words” value is “improvement in fraction of aminolysis obtained; also recorded: most dramatic improvement; also recorded: most effective at increasing the fraction of aminolysis”.
